Experimental data taken from PMC10980035 (bioRxiv, 2024).

What was measured:
[1] = molecular target: T1, Retriever complex (VPS35L, VPS26C, VPS29) (human, UniProt Q7Z3J2 1-963; O14972 1-297; Q9UBQ0-2 1-186); assay: pull-down
[2] = molecular target: T1, Retriever complex (VPS35L, VPS26C, …); assay: pull-down; remark: listed apart in the source

T1 sequence (Q7Z3J2 whole entry, chain 1 of 2): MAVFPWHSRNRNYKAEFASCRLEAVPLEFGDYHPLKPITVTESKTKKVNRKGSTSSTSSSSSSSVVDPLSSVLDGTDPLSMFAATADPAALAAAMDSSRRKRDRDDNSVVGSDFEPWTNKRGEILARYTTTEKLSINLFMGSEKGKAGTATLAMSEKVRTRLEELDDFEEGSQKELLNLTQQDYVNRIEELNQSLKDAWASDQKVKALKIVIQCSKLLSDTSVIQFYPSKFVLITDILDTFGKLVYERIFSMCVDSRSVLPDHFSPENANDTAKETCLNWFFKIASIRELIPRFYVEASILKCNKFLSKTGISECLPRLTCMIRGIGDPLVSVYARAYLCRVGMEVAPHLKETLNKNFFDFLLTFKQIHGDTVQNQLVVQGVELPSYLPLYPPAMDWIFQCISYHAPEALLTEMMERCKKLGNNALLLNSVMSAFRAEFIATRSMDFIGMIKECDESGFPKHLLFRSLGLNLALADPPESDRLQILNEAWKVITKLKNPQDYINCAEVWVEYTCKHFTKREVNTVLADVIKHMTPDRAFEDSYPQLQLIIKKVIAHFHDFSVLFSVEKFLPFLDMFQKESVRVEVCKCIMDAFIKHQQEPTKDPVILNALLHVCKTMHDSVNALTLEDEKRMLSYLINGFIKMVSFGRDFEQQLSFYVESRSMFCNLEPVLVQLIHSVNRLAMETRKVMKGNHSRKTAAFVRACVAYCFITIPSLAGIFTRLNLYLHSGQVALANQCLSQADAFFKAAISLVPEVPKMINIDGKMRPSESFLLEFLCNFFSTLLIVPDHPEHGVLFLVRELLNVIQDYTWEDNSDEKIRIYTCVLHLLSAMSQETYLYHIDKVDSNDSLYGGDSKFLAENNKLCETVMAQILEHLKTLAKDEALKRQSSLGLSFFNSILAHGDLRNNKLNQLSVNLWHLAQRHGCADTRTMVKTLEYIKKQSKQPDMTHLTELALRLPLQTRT
T1 sequence (O14972 whole entry, chain 2 of 2): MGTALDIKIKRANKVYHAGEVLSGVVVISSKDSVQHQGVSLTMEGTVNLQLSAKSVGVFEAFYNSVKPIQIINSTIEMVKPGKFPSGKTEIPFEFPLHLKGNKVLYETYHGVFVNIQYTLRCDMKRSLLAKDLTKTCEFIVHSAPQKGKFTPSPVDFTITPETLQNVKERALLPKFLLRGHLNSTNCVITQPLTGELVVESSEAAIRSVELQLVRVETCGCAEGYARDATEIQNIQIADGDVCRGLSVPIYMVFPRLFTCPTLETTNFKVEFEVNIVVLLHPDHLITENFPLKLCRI

| Kd [1] [nM] | binding result [2] | Binder |
| --- | --- | --- |
| ~110 |  | ASASDVHGNFAFEGIGDEDL [GST-SNX17 CT (GST-tagged tail peptide, last 20 residues of SNX17)] |
|  | binds | SVYLVNFRCCRSHDLCNEDL [GST-tagged CT acidic tail of PATE1 (last 20 amino acids)] |
|  | binds | SKIKIAKDDCVFGNIKEEDL [GST-tagged CT acidic tail of SNX31 (last 20 amino acids)] |
